Assays:
[1] = test system: corneal neovascularization in mice; experiment: Corneal neovascularization induced by alkali burn in BALB/c mice (MVD, CD31); format: in vivo
Text: 15 healthy male BALB/c mice with weight of 20-25 g were examined under a slit lamp microscope for the anterior segment of both eyes and the appendage to exclude ocular lesions. The eyes were given 0.3% loxacin eye drops 1 day before the preparation of alkali burn model, twice a day. After the mice were anesthetized by intraperitoneal injection of 1.8% Avertin, single-layer filter paper with a diameter of 2 mm was clamped with tweezers, and immersed in a 1 mol/L sodium hydroxide solution to reach a saturated state, and the excess liquid was removed. […]
15 mice were randomly divided into […], with 5 rats in each group. […] On day 14 after alkali burn, the neovascularization of the corneal in each group was photographed and recorded under the slit lamp microscope for photographing anterior segment of the eye. […] The blood was washed with physiological saline, and the eyeballs were fixed in 4% paraformaldehyde for 1.5 h, dehydrated in PBS containing 30% sucrose overnight, embedded in an OCT tissue freezing medium, stored in a refrigerator at −80° C., subjected to cryosection at […] and detected by immunohistochemistry for CD31 expression.
Microvessel density (MVD) is an indicator for evaluating angiogenesis. […] The number of new blood vessels in the entire section was counted under a 10×20 microscope. […]

[2] = test system: human retinal vascular endothelial cell (HRCEC); experiment: MTT assay, proliferation of human retinal vascular endothelial cell (HRCEC); format: cell-based; conditions: 48 hours
Description: The activity of the integrin blocker polypeptide to inhibit proliferation of human retinal vascular endothelial cells was examined by MTT assay. HRCEC cells were cultured in a 5% CO2 incubator at 37° C. to a density of 90% or more, and then collected by trypsinization. The cells were resuspended in the culture liquid and counted under a microscope. The cell concentration was adjusted to 3.0×10^4 cells/mL. The cell suspension was inoculated into a 96-well plate at 100 μL per well and cultured in a 5% CO2 incubator at 37° C. overnight. […] After the cells were fully adhered, each dilution was added to a 96-well plate at 100 μL per well, respectively. […] 20 μL of 5 mg/mL MTT was added to each well of a 96-well plate, and incubation was continued for 4 hours. The medium was aspirated and 100 μL of DMSO was added per well for dissolution. The absorbance was measured at 570 nm with a microplate reader with a reference wavelength of 630 nm, and the proliferation inhibition (PI) was calculated. The formula was as follows: […]
where Ntest is the OD value of the test group and Ncontrol is the OD value of the blank control group.
The test was repeated 5 times independently. The results obtained from the test were calculated as mean±SD, and statistical t-test was performed. P<0.05 was considered as significant difference, and P<0.01 was considered as extremely significant difference.

[3] = test system: choroidal blood flow in rabbit eyes; experiment: Choroidal blood flow in rabbit eyes (color microsphere technique); format: in vivo; conditions: 128 μg intravitreal injection; for Blood flow: rabbit eyes with high intraocular pressure
Description: New Zealand white rabbits with weight of 2.5-3.0 kg were randomly divided into […], which were labeled as a control group, and fusion protein I, protein II, protein III, protein IV, and protein V groups. White rabbits in each group were anesthetized with 35 mg/kg xylazine via intramuscular injection, and then anesthesia was maintained with half of the initial amount via intramuscular injection per hour. The intraocular pressure of the left eye was increased to 40 mmHg, under which the blood flow can be reduced to ⅓ of the normal value. The left ventricle was cannulated through right carotid artery for injection of microspheres (for the calculation of ocular blood flow), and the femoral artery was cannulated for blood collection. Each group was given physiological saline, 128 μg of fusion protein I, 128 μg of protein II, 128 μg of protein III, 128 μg of protein IV, and 128 μg of protein V via intravitreal injection. The ocular blood flow of rabbit eyes with high intraocular pressure was measured by a color microsphere technique at 0, 30, and 60 minutes after administration. At each time point, 0.2 mL (about 2 million) of microspheres were injected. Immediately after the microspheres were injected, blood was collected through the femoral artery for 60 seconds, and placed in a heparinized anticoagulant tube, and the amount of blood collected was recorded. After the last blood collection, the animals were sacrificed with 100 mg/kg phenobarbital via intravenous infusion. The eyeballs were removed, and the retina, choroid, iris and ciliary body were separated, and the tissue weight was recorded. The tissue blood flow at each time point was calculated with the following formula: Qm=(Cm×Qr)/Cr, where Qm represented tissue blood flow in μL/min/mg; Cm was the number of microspheres per milligram of tissue; Qr was blood flow in μL/min; and Cr was the number of blood microspheres as a reference.

B1: Protein II: IgG2-Fc linked to antiangiogenesis polypeptide EDSM-Y via a flexible linker; SEQ ID NO: 17 (protein)
chain: ERKCCVECPPCPAPPVAGPSVFLFPPKPKDTLMISRTPEVTCVVVDVSHEDPEVQFNWYVDGVEVHNAKTKPREEQFNSTFRVVSVLTVVHQDWLNGKEYKCKVSNKGLPAPIEKTISKTKGQPREPQVYTLPPSREEMTKNQVSLTCLVKGFYPSDISVEWESNGQPENNYKTTPPMLDSDGSFFLYSKLTVDKSRWQQGNVFSCSVMHEALHNHYTQKSLSLSPGKGGGGSGGGGSGGGGSFQPVLHLVALNSPLSGGMRGIRGADFQCFQQARAVGLAGTFRAGGGGRGD
[1]; compared with the control group
  number of CD31-positive new blood vessels: significantly reduced
[1]; dose 64 μg, intravitreal injection, day 14 after alkali burn
  MVD: 24.64 ± 4.24
[2]; 1 μg/mL
  A570 nm/A630 nm: 1.1122 ± 0.0385
  PI: 17.44%
[2]; 2 μg/mL
  A570 nm/A630 nm: 1.0002 ± 0.0405
  PI: 25.75%
[2]; 4 μg/mL
  A570 nm/A630 nm: 0.9287 ± 0.0288
  PI: 31.06%
[2]; 8 μg/mL
  A570 nm/A630 nm: 0.8999 ± 0.0320
  PI: 33.20%
[2]; 16 μg/mL
  A570 nm/A630 nm: 0.8225 ± 0.0291
  PI: 38.94%
[2]; 32 μg/mL
  A570 nm/A630 nm: 0.7348 ± 0.0277
  PI: 45.45%
[2]; 64 μg/mL
  A570 nm/A630 nm: 0.5748 ± 0.0314
  PI: 57.33%
[2]; 128 μg/mL
  A570 nm/A630 nm: 0.3628 ± 0.0282
  PI: 73.07%
[2]; 256 μg/mL
  A570 nm/A630 nm: 0.1495 ± 0.0314
  PI: 88.90%
[3]; 0 min after administration
  Blood flow: 22.9 ± 2.5 µL/min/mg
[3]; 30 min after administration
  Blood flow: 15.7 ± 1.3 µL/min/mg
[3]; 60 min after administration
  Blood flow: 13.9 ± 1.2 µL/min/mg
[3]; all observation time points
  choroidal blood flow: significantly increased
